In publication PMC7567103 (Nature Communications, 2020):
Numbering of substitutions follows the chain as printed. Values belong to the molecule of their own block, whether it stands above or below them. Where no end group is shown, it is not given here.

Key:
GHRHR(23-423) (human) = GHRHR(23-423) (human) (UniProt Q02643)
GHRHR WT = assay: cAMP accumulation, GHRH vs GHRH(D3A) (Supplementary Fig. 6c); assay type: cell-based, human; settings: D3A in GHRH; WT receptor
Experimental: GHRH-stimulated cAMP accumulation was measured by a LANCE Ultra cAMP kit (PerkinElmer). Briefly, 24 h after transfection with GHRHR(23-423), GHRHR(23-405), GHRHR(23-405)-LgBiT-2MBP, or HA-Flag-GHRHR (WT and mutants), HEK 293 T cells (3000/well in 384-well white plates, PerkinElmer) were digested by 0.2% (w/v) EDTA and 5 μL stimulation buffer (HBSS supplemented with 5 mM HEPES, 0.5 mM IBMX, and 0.1% (w/v) BSA, pH 7.4). Different concentrations (5 μL) of GHRH were then added and the stimulation lasted for 30 min at RT. The reaction was stopped by adding 5 μL Eu-cAMP tracer and 5 μL ULight-anti-cAMP. After 1 h RT incubation, TR-FRET signals (excitation: 320 nm, emission: 615 and 665 nm) were measured by an EnVision (PerkinElmer).

[1] = biological target: HA-Flag-GHRHR N346A (human) (UniProt Q02643)
[2] = biological target: HA-Flag-GHRHR H210A (human) (UniProt Q02643)
[3] = biological target: HA-Flag-GHRHR R357A (human) (UniProt Q02643)
[4] = biological target: HA-Flag-GHRHR T213A (human) (UniProt Q02643)
[5] = biological target: GHRHR(23-423) (WT) (human) (UniProt Q02643)
[6] = biological target: HA-Flag-GHRHR K182A (human) (UniProt Q02643)
[7] = biological target: HA-Flag-GHRHR F187A (human) (UniProt Q02643)
[8] = biological target: HA-Flag-GHRHR W282A (human) (UniProt Q02643)
[9] = biological target: HA-Flag-GHRHR C195A (human) (UniProt Q02643)
HA-Flag-GHRHR R357C = biological target: T1, HA-Flag-GHRHR R357C (human, UniProt Q02643 23-423, R357C); assay: cell-based or functional assay
T1 sequence (looked up): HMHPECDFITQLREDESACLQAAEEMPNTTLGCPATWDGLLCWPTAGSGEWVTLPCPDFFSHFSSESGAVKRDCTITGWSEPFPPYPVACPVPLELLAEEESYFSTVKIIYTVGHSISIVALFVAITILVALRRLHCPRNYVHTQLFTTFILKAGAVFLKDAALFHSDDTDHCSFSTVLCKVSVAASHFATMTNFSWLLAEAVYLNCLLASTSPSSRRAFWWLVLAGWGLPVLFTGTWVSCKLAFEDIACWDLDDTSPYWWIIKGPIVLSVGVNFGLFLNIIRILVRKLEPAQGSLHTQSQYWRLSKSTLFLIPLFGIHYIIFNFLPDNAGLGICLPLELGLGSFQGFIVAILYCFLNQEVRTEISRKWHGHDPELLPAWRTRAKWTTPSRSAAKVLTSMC

HA-Flag-GHRHR C195A = biological target: T2, HA-Flag-GHRHR C195A (human, UniProt Q02643 23-423, C195^ECL1A); assay: cell-based or functional assay
T2 sequence (looked up): T1 sequence (looked up) with C173A, C335R

HA-Flag-GHRHR F187A = biological target: T3, HA-Flag-GHRHR F187A (human, UniProt Q02643 23-423, F187^ECL1A); assay: cell-based or functional assay
T3 sequence (looked up): T1 sequence (looked up) with F165A, C335R

HA-Flag-GHRHR K182A = biological target: T4, HA-Flag-GHRHR K182A (human, UniProt Q02643 23-423, K182^2.67bA); assay: cell-based or functional assay
T4 sequence (looked up): T1 sequence (looked up) with K160A, C335R

cAMP accumulation in HEK 293 T cells: fold loss of potency (GHRHR(23-423) (human)): 4 fold
Molecule: GHRH D^3PA (peptide)

Molecule: GHRH(D3A): GHRH with Asp3 replaced by Ala (YAAAIFTNSYRKVLGQLSARKLLQDIMSRQQGESNQERGARARL; ends and bridges not checked; UniProt P01286 32-75, looked up, variant D3A)
diminished potency vs GHRH (GHRHR WT): ~ 4 fold

Supplementary Table 4, N346A: pEC50 of GHRH-induced cAMP accumulation, HEK 293T cells [1]: 8.85 -log M
Supplementary Table 4, H210A: pEC50 of GHRH-induced cAMP accumulation, HEK 293T cells [2]: 9 -log M
Supplementary Table 4, R357A: pEC50 of GHRH-induced cAMP accumulation, HEK 293T cells [3]: 6.87 -log M
Supplementary Table 4, T213A: pEC50 of GHRH-induced cAMP accumulation, HEK 293T cells [4]: 9.35 -log M
Supplementary Table 4, Wild-type: pEC50 of GHRH-induced cAMP accumulation, HEK 293T cells [5]: 9.74 -log M
Supplementary Table 4, K182A: pEC50 of GHRH-induced cAMP accumulation, HEK 293T cells [6]: 7.4 -log M
Supplementary Table 4, F187A: pEC50 of GHRH-induced cAMP accumulation, HEK 293T cells [7]: 8.94 -log M
Supplementary Table 4, W282A: pEC50 of GHRH-induced cAMP accumulation, HEK 293T cells [8]: 7.88 -log M
Supplementary Table 4, C195A: pEC50 of GHRH-induced cAMP accumulation, HEK 293T cells [9]: 7.67 -log M
Molecule: growth hormone-releasing hormone (GHRH) (from UniProt P01286 32-75) (peptide)

cAMP accumulation in HEK 293 T cells: fold loss of GHRH potency (HA-Flag-GHRHR R357C): 1000 fold
cAMP accumulation in HEK 293 T cells: fold loss of GHRH potency (HA-Flag-GHRHR C195A): ~100 fold
cAMP accumulation in HEK 293 T cells: fold loss of GHRH potency (HA-Flag-GHRHR F187A): ~5 fold
cAMP accumulation in HEK 293 T cells: fold loss of GHRH potency (HA-Flag-GHRHR K182A): ~200 fold
Molecule: YADAIFTNSYRKVLGQLSARKLLQDIMSRQQGESNQERGARARL (peptide, UniProt P01286 32-75, looked up) [Growth hormone-releasing hormone (GHRH)]
